Experiment: yeast display, Sf9 membrane polyspecificity reagent, FACS + sequencing; frameworks hold sequencing errors
Method in brief: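 After 36–48 hours of galactose induction, yeast (Saccharomyces cerevisiae BJ5465) displaying a synthetic nanobody library were stained at 4 °C for 1 hour with 10% biotinylated, detergent-solubilized Sf9 membrane reagent. Streptavidin microbeads enriched the stained cells before FACS sorting into low and high (top ~1%) gates on anti-HA and streptavidin fluorescence. Each clone's polyreactivity label reflects its gate of origin.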

Sequence	polyreactivity (PSR sort gate)
QVQLVDSGGGLVQAGGSLRLSCAASGFTIYANAMGWYRQAPGKERELVAAITSSSGRTYYADSVKGRFTISRDNAKNTVYLQMNSLIPEETAVYYCAARWSPYDYWGQGTQVTVSS	low polyreactivity
QVQLVESGGGLVQAGGSLRLSCAASGRIFILYAMGWYRQAPAKERALVAAISSGGGRTYYADSVKGRFTISRDNAKNTVYLQMNSLKPEDTAVYYCATRRRRTSQRQGYDYWGQGTQVTVSS	high polyreactivity
QVQLVESGGGLVQAGGSLRLSCAASGIIFGPYAMGWYIQAPGKERELVAAITDGGITYYADSVKGRFTISRDNAKNTVYLQMNSLKPEDTAVYYCAAESGYPVYTYVSSGDYWGQGTQVTVSS	low polyreactivity
QVQLVESGGGLVQAGGSLRLSCAASGSTFSNNARGWYRQAPGKERELVAAISRSGGSTYYADSVKGRFTISRDNAKNTVYLQMNSLKPEDTAVYYCAAYAPYYRTMDYWGQGTQVTVSS	high polyreactivity
QVQLVESGGGLVQAGGSLRLSCAASGSTFTYYSMGWYRQAPGKERELVDAITGRGGRTYYADSVKGRFTISRDNAKNTVYLQMNSLKPEDTAVYYCARYQSSDTYWTKYDYWGQGTQVTVSS	high polyreactivity
QVQLVESGGGLVQAGGSLRLSCSASGLTLKRYAMGWYRQAPGQERELVAAISKSGGSTYYADSVKGRFTISRDNAKNTVYLQMNSLKPEDTAVYYCAADSYNLWDDYWGQGTQVTVSS	low polyreactivity
QVQLVESGGGLVQAGGSLRLSCAATGFTFYGYAMGWYRQAPGKERELVAAISRRSSSTYYADSVKGRFTISRDNAKNTVYLQMNSLKPEDTAVCYCNTVFQRSGYAAGVDYWGQGTQVTVSS	high polyreactivity
QVQLVESGVGLVQAGGSLRLSCAASGSIFFKYAMGWYRQAPGKERELVAGITSTGRTYYADSVKGRFTISRDNAKNTVYLQMNSLKPEDTAVYYCNARTLPTYYRRYDYWGQGTQVTVSS	high polyreactivity
QVQLVESWGGLVQAGGSLRLSCAASGITFPINTMGWYRQAPGKERELVAGIDWTGGSTYYADSVKGRFTISRDNAKNTVYLQMNSLKPEDTAVYYCAKRSYTGYEYWGQGTQVTVSS	low polyreactivity
QVQLVESGGGLVHAGGSLRLSCAASGRIFYYNAMGWYRQAPGKEREFVAAIRSSGGSTYYSDSVKGRFTISRDNAKNTVYLQMNSLKPEDTAVYYCAADFYGLGDYGVDYWGQGTQVTVSS	low polyreactivity
QVQLVESGRGLVQAGGSLRLSCAASGFTFGYYAMGWYRQAPGKERELVAAITSSGGTTYYADSVKGRFTISRDNAKNTVYLQMNSLKPEDTAVYYCAAEAQYYVVDPYGYDYWGQGTQVTVSS	low polyreactivity
QVQLVESGGGLVQAGGSLRLSCAASGRTFRYYAMGWYRQAPGKERELVAAISYSGGSTYYADSVKGRFTISRDNAKNTVYLQMNSLKPEDTAVYYCAAGPWHYKYSLRGWGYYWGQGTQVTVSS	high polyreactivity
QVQLVESGRGLVQAGGSLRLSCAASGRTFDGYAMGWYRQAPGKERELVAAIDYDGVSTYYADSVKGRFTISRDNAKNTVYLPMHSLKPEDTAVYFCAVDATDDWWLDYWGQGTQVSVSS	low polyreactivity
QVQLVESWGGLVQAGGSLRLSCAASGRIFYKYAMGWYRQAPGKERELVAAISYSGGSTYYADSVKGRFTISRDNAKITVYLQMKSLKQEDTAVDDCNAKPPYGVRSWGDYWGQGTKVTVSS	low polyreactivity
QDQLVESGGGLVQAGGSLRLSCAASGRTIVLNPMGWYRQAHGKERELVAAISSGGSTNYADSVKGRFTISRDNAKNTVYLQMNSLNPEDTAVYYCAGQDVNLYSAYYYWGQGTQVTVSS	low polyreactivity
QVQLVESGAGIVQAGGSLRLSCAASGLTFKVYAMGWYRQAPGKERELVAAISWSGGSTYYADSVKGRFTISRDNAKNTGYLQRNSLKPEDTAVYYCAVEPSYYVVFFQYDYWGQGTQVTVSS	low polyreactivity
QVQLVESGGGLVQAGGSLRLSCAASGHIFFINAMGWYRQAPGKERELVAAIDWSGGSTYYADSVKGRFTISRDNAKNTDYLQMNSLKPADTAVYYCAAELLWDYILYYYWGQGTQVTVSS	high polyreactivity
QVQLVESGGGLVQAGGSLRLSCAASGFIFWYYAMGWYRPAPGQERELVAAIRRGGSTNYADSVKGRFTISRDNAKNTVYLQMNSLKPEDTAVYYCAADVPRDTFDSWGQGTQVTVSS	low polyreactivity
QVQLVESGGGLVQAGGSLRLSCAASGFTFGWYAMGWYRQAPGKEREFVATITYSGGSTYYADSVKGRFTISRDNAKNTVYLQMNSLKPEDTAVYYCAAARYWYRRFDYWGQGTQVTVSS	high polyreactivity
QVQLVESGGGLVQAGGSLRLSCAASGSIFAAYAMGWYRQAPGKERELVAAISLDDGSTYADSVKGRFTISRDNAKNTVYLQMNSLKPEDTAVYYCNARYKSRLYPRYDYWGQGTQVTVSS	high polyreactivity
QVQLVESGGRLVQAGGRLRLSCAASGRTILLYAMGRYRQAPGKESELVPAIRSSTVSTYYADSVKGRFTISRDNAKNTVYLQMYSLKPEDTAVYYCAASRPKYGPSGVRYNYWGQGTQVTVSS	high polyreactivity
QVQLVESGGGLVQAGGSLRLSCAASGRTIDSYAMGRNRQAPGKERELVAAISWGGGSTYYADSVKGRFTISRDNAKNTVYLQMNSLKPEDTAVYYCAARWNYTEFDYWGQGTQVTVSS	low polyreactivity

Sequence	polyreactivity (PSR sort gate)
QVQLVESGGGLVQAGGSLRLICAASGIIFYVYAMGWYRQAPGKERELVAAISFRGTSTYADSVKGRFTISRDNAKNTVYLQLNSLKPEDTAVYYCAVTGFDVLWPSLGGVLDYWGQGTQVTVSS	low polyreactivity
QVQLVESGGGLVQAGGSLRLSCAASGFTFDSNVMGWYRQAPGKEREVVAAITGDDTTYYADSVKGRFTISRDNAKNTVYLQMNSLKPEDTAVYYCAADETESLEYTAYDMYYWGQGTQVTVSS	low polyreactivity
QVQLVESGGGLVQAGGSLRLSCAASGFTFSYNTMGWYRQAPGKERELVAAISGSGARTYYADSVKGRFTISRDNAKNSVYLQMNSLKPEDTAVYYCNAKYGYDSEARIVKPVRYDYWGQGTQVTVSS	high polyreactivity
QVQLVESGGGLVQAGGSLRLSCAASGRIQYNAMGWYRQAPGKEREFVAAISWSGGTTYYADSVKGRFTISRDNAKNTVYLQMNRLKPEDTAVYYCATPYTHWGQGTQVTVSS	high polyreactivity
QVQLVESGGGLVQAGGSLRLTCAASGSIFYLYAMGWYRQAPGKETELVAAISRTGSTYADSVKGRFTISRDNAKKTVYLQMNSLKPEDTAVYYCAAEYRYYWYGTMNYWGQGTQVTVSS	low polyreactivity
QVQLVESGGGLVQAGGSLRLSCAASGSTFPVYAMGWYRQAPGKERELVATISYSGGSTNYADSVKGRFTISRDNAKNTVYLQMNSLIPEDTAVYYCAARKVNRGSGGYDSWGQGTQVTVSS	high polyreactivity
QVQLVESGGGLVQAGGSLRLSCAASGFIFNRNAMGWYRQAPGKERELVAGINSGGTTKYADSVKGRFTISRDNAKNTVYLQMNSLKPEDTAVYYCNRDWWWDHGRWYRTSRYDYWGQGTQVTVSS	low polyreactivity
QVQLVESGGGLVQAGGSLRLSCAASGRSLRGYAMGWYRQAPGKERELVAAISRRGGSTRYADSVKGRFTISRDNAKNTVYLQMNSLKPEDTAVYYCAAPDFPKYYPTAYLQADEYWGQGTQVTVSS	high polyreactivity
QVQLVESGGGLVQAGGSLRLSCAASGFIFRYYAMGWYRQAPGKERELVAAISWSGGSTYYADSVKGRFTISRDNAMNTVYLQMNSLKPEDTAVYYCAADRYAILFYAEDYWGQGTQVTVSS	low polyreactivity
QVQLVESGGGLVQAGGSLRLSCAASGSIFSYNAMGWYRQATGKERELVARITRGGDGTYYADSVKGRFTISRDNAKNTVYLQMNSLKPEDTAVYYCAATPYWYHLRVEGGYWGQGTQVTVSS	low polyreactivity
QVQLVESGGGLVKAGGSLRLSCAASGRTFSRYAMGWYRQAPGTEGEVVAAISYSGASTYYADSVKGRFTISRDNAKNTVYLQMNSLKPEDTAVSYCAARAPGPAPPQIRYGYWGQGTQVTVSS	high polyreactivity
QVQLVESGGGLVQAGGSLRLSCAASGITFQYYTMGWYRQAPGKERELVAAISWSTSSTYYADSVKGRFTISRDNAKNTVYLQMNSLKPEDTAVYYCAARYTTRRYYYWGQGTQVTVSS	high polyreactivity
QFQLLESGGGLVQAGGSLRLSCAASGSTFSLTTMGWYRPAPGKERELVAAINSGGSTYYADSVKGRFTISRDNAKNTVYLKMNSLKPEDTAVYYCAARTKYFGRFDYWGQGTQVTVSS	low polyreactivity
QVQLVESGGGLVQAGGSLRLSCAASGRIFDTYAMGWYRQAPGKERELVAAITRRGGSTYYADSVKGRFTISRDNAKNTVYLQMNSLKPEDSAVYYCAKSLVNRHYDYWGQGTQVTVSS	low polyreactivity
QVQLVESGGGLVQAGGSLRLSCAASGRIFAYYAMGWYRQAPGKERELVATINYSGTSTYYADSVKGRFTISRDNAKNTVYLQMNSLKPEDTAFYYCAADLTSRLLWYHIERFDYWGQGTQVTVSS	high polyreactivity
QVQLVESGGGLVQAGGSLRLSCAASGSTFFRNAMGWYRQAPGKERELVAGITSGVTTYYADSVKGRFTISRDNAKNTVYLQMNSLKPEDTAVYYCAVYWRGRGAFTYGSWGQGTQVTVSS	high polyreactivity
QVQLVESGGGLVQAGGSLRLSCAASGSTFTSYAMGWYRQAPGKERELVAAINWSGGSTYYADSVKGRFTISRDIAKNTVYLQMNSLKPEDTAVYYCAVLYRYGYDYWGQGTQVTVSS	low polyreactivity
QFQLVESVGGLVQAGSRLRLSCAASGRTFIPYAMGWYRQAPGKERELVAAITSSGGLTYYADSVMGRFTISRDNAKNTVYLQMNSLKPEDTAVYYCNKYARGYDMDYWGHGTQVTVSS	high polyreactivity
QVQLVESGGVLVQAGGSLRLSCAASGSIFYYNAMGWYRQAPGKERELVATITGGNGTYYADSVKGRFTISRDNAKNTVYLQMNSLKPEVTAVYYCARDTDPQSSRSSDYDYWGQGTQVTVSS	low polyreactivity
QVQLVESGGGLVQAGGSLRLSCAASGSTFRFYTMGWYRQAPGKERELVAAISGSGGSTYYADSVKGRFTISRDNAKNTVYLQMNSLKPEDTADYYCAADKSRNASHRGYWGQGTQVTVSS	low polyreactivity
QVQLVVSGGGLVQAGGSLRLSCAASGSTFVSNAMGWYRQAPGQERELVAAITSGGSTDYADSVKGRCTISRDNAKNTVYVQMNSLQPEDTAVYYGAADPEWHSDQPRVGYVGYNYWGQGTQVNVSS	low polyreactivity
